Source: article PMC12572195 (Nature Communications, 2025)

Biological target: SPT6 (human, UniProt Q7KZ85 1-1726)
Test: cell-based or functional assay

B1: SETD2 (residues 1446-2564) (domain or fragment)
chain: GPSCVMDDFRDPQRWKECAKQGKMPCYFDLIEENVYLTERKKNKSHRDIKRMQCECTPLSKDERAQGEIACGEDCLNRLLMIECSSRCPNGDYCSNRRFQRKQHADVEVILTEKKGWGLRAAKDLPSNTFVLEYCGEVLDHKEFKARVKEYARNKNIHYYFMALKNDEIIDATQKGNCSRFMNHSCEPNCETQKWTVNGQLRVGFFTTKLVPSGSELTFDYQFQRYGKEAQKCFCGSANCRGYLGGENRVSIRAAGGKMKKERSRKKDSVDGELEALMENGEGLSDKNQVLSLSRLMVRIETLEQKLTCLELIQNTHSQSCLKSFLERHGLSLLWIWMAELGDGRESNQKLQEEIIKTLEHLPIPTKNMLEESKVLPIIQRWSQTKTAVPPLSEGDGYSSENTSRAHTPLNTPDPSTKLSTEADTDTPKKLMFRRLKIISENSMDSAISDATSELEGKDGKEDLDQLENVPVEEEEELQSQQLLPQQLPECKVDSETNIEASKLPTSEPEADAEIEPKESNGTKLEEPINEETPSQDEEEGVSDVESERSQEQPDKTVDISDLATKLLDSWKDLKEVYRIPKKSQTEKENTTTERGRDAVGFRDQTPAPKTPNRSRERDPDKQTQNKEKRKRRSSLSPPSSAYERGTKRPDDRYDTPTSKKKVRIKDRNKLSTEERRKLFEQEVAQREAQKQQQQMQNLGMTSPLPYDSLGYNAPHHPFAGYPPGYPMQAYVDPSNPNAGKVLLPTPSMDPVCSPAPYDHAQPLVGHSTEPLSAPPPVPVVPHVAAPVEVSSSQYVAQSDGVVHQDSSVAVLPVPAPGPVQGQNYSVWDSNQQSVSVQQQYSPAQSQATIYYQGQTCPTVYGVTSPYSQTTPPIVQSYAQPSLQYIQGQQIFTAHPQGVVVQPAAAVTTIVAPGQPQPLQPSEMVVTNNLLDLPPPSPPKPKTIVLPPNWKTARDPEGKIYYYHVITRQTQWDPPTWESPGDDASLEHEAEMDLGTPTYDENPMKASKKPKTAEADTSSELAKKSKEVFRKEMSQFIVQCLNPYRKPDCKVGRITTTEDFKHLARKLTHGVMNKELKYCKNPEDLECNENVKHKTKEYIKKYMQKFGAVYKPKEDTELE
In the case of B1, the “co-transcriptional methylation assay (3H activity) with SETD2 Construct 4 (includes the complete SBR, lacks the SRI domain)” value is reported as ~50 % of WT.
